Results reported in patent publication US20250025541A1.

Target: IL-4Ra of CTLL-2 cells (UniProt P16382)
Experiment: cell-based or functional assay

Substance | ED50 [ng · mL^-1], residual activity, CTLL-2 proliferation | Inactivation factor (ED50 of the product divided by ED50 of the muIL-4 control), CTLL-2 proliferation
muIL-4 immunogenic product (CRM197) (from UniProt P07750 21-140; P00587 26-560) | 0.62 µg/mL | 370
muIL-4 immunogenic product (KLH) | 0.0215 µg/mL | 21
